B1: BBSome complex member BBS5 (Homo sapiens), Q8N3I7 (parent)
chain: MSVLDALWEDRDVRFDLSAQQMKTRPGEVLIDCLDSIEDTKGNNGDRGRLLVTNLRILWHSLALSRVNVSVGYNCILNITTRTANSKLRGQTEALYILTKCNSTRFEFIFTNLVPGSPRLFTSVMAVHRAYETSKMYRDFKLRSALIQNKQLRLLPQEHVYDKINGVWNLSSDQGNLGTFFITNVRIVWHANMNDSFNVSIPYLQIRSIKIRDSKFGLALVIESSQQSGGYVLGFKIDPVEKLQESVKEINSLHKVYSASPIFGVDYEMEEKPQPLEALTVEQIQDDVEIDSDGHTDAFVAYFADGNKQQDREPVFSEELGLAIEKLKDGFTLQGLWEVMS
partner: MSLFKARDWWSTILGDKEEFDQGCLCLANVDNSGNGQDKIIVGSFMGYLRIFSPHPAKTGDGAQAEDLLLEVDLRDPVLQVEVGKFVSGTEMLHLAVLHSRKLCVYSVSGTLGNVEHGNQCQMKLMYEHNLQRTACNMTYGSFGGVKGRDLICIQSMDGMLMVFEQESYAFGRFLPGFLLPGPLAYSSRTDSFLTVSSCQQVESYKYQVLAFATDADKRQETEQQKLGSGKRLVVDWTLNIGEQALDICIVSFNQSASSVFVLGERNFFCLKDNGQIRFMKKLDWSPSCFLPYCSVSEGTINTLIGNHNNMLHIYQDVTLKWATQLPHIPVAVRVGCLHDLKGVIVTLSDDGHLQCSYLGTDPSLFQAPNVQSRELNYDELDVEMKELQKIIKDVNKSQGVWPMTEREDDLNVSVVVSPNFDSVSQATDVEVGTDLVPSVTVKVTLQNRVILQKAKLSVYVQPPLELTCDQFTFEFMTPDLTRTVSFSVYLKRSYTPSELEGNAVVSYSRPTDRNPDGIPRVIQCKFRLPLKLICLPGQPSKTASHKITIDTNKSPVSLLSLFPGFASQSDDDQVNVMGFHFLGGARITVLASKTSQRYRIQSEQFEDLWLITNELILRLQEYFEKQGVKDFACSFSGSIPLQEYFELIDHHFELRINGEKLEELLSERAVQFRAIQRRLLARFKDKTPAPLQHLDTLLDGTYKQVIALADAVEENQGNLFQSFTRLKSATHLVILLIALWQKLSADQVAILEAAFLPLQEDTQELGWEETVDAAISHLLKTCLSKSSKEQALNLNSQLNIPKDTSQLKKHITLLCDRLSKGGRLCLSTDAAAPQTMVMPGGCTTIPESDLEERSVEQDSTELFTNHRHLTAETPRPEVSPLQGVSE

Variants of: B1
Details: with pthb1_human BBS9, Q3SYG4

Variant	effect of a mutation on the interaction
A278K	with no effect
L279A	with no effect
L279E	with no effect
L279K	with no effect
T280A	with no effect
T280E	with no effect
T280K	with no effect
V281A	with no effect
V281E	with no effect
V281K	with no effect
E282A	with no effect
E282K	with no effect
Q283A	with no effect
Q283E	with no effect
Q283K	with no effect
I284A	with no effect
I284E	with no effect
I284K	with no effect
Q285A	disrupting interaction strength
Q285E	with no effect
Q285K	with no effect
D286A	with no effect
D286E	with no effect

Variant	effect of a mutation on the interaction
D286K	with no effect
D287A	with no effect
D287E	with no effect
D287K	with no effect
V288A	with no effect
V288E	with no effect
V288K	with no effect
E289A	with no effect
E289K	with no effect
I290A	with no effect
I290E	with no effect
I290K	with no effect
D291A	with no effect
D291E	with no effect
D291K	with no effect
S292A	with no effect
S292E	with no effect
S292K	with no effect
D293A	with no effect
D293E	with no effect
D293K	with no effect
G294A	with no effect
G294E	with no effect

Variant	effect of a mutation on the interaction
G294K	with no effect
H295A	with no effect
H295E	with no effect
H295K	with no effect
T296A	with no effect
T296E	with no effect
T296K	with no effect
D297A	with no effect
D297E	with no effect
D297K	with no effect
A298E	with no effect
A298K	with no effect
F299A	with no effect
F299E	with no effect
F299K	with no effect
V300A	with no effect
V300E	with no effect
V300K	with no effect
A301E	with no effect
A301K	with no effect
Y302A	with no effect
Y302E	with no effect
Y302K	disrupting interaction strength

Variant	effect of a mutation on the interaction
F303A	disrupting interaction strength
F303E	with no effect
F303K	with no effect
A304E	with no effect
A304K	with no effect
D305A	with no effect
D305E	with no effect
D305K	with no effect
G306A	with no effect
G306E	with no effect
G306K	with no effect
N307A	with no effect
N307E	with no effect
N307K	with no effect
K308A	with no effect
K308E	with no effect
Q309A	with no effect
Q309E	with no effect
Q309K	disrupting interaction strength
Q310A	with no effect
Q310E	with no effect
Q310K	with no effect
D311A	with no effect
